Measured values as given in paper PMC6523098 (2019).

Molecular target: T1, His:AtBPM3 (Arabidopsis thaliana (Mouse-ear cress), UniProt O22286)
T1 chain: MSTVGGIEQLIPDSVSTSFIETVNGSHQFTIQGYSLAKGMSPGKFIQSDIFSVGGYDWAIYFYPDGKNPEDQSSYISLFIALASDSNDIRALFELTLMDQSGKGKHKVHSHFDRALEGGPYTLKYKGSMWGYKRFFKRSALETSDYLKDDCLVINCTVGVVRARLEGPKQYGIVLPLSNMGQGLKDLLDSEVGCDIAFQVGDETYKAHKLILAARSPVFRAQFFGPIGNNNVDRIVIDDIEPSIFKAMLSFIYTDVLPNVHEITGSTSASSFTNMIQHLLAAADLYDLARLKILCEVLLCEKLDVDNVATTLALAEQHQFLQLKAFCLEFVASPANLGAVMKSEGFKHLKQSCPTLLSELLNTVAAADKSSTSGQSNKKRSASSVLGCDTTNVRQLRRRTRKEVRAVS
Assay: pulldown

binding result: binds
B1: GST:AtRAP2.4 (protein)
chain: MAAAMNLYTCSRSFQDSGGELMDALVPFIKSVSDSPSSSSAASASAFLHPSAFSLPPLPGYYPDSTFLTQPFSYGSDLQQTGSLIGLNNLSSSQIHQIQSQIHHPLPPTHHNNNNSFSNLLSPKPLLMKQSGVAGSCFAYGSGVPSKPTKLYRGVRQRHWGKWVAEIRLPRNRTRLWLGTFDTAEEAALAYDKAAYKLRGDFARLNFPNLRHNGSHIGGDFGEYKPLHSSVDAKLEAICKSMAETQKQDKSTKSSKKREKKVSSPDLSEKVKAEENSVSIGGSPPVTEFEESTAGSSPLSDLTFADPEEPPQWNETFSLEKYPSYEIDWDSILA
